In publication PMC6987182:

System: Asp97
Test: UV-vis
Conditions: 150 mM NaCl; 50 mM Tris-HCl; Dark/ground state, retinal-bound, detergent-solubilised purified protein

## HSG119 rhodopsin (blue-light absorbing proteorhodopsin homologue) (uncultured marine bacterium (metagenome sample HSG070119-03, seawater near King Sejong Station, King George Island, Antarctica))
  pKa: around 5.8 and 8.0
